According to PMC3924328, “Structure of the S100A4/myosin-IIA complex” (BMC Structural Biology, 2013):

B1: MIIA^1851-1960: C-terminal fragment of the human myosin-IIA heavy chain that corresponds to residues 1851–1960 (protein)
chain: VDDERRNAEQYKDQADKASTRLKQLKRQLEEAEEEAQRANASRRKLQRELEDATETADAMNREVSSLKNKLRRGDLPFVVPRRMARKGAGDGSDEEVDGKADGAEAKPAE
B2: myosin-IIA rod (residues 1102–1960): myosin-IIA rod, residues 1102–1960 (protein, UniProt P35579 1102-1960, looked up, fragment)
chain: ALKKIRELESQISELQEDLESERASRNKAEKQKRDLGEELEALKTELEDTLDSTAAQQELRSKREQEVNILKKTLEEEAKTHEAQIQEMRQKHSQAVEELAEQLEQTKRVKANLEKAKQTLENERGELANEVKVLLQGKGDSEHKRKKVEAQLQELQVKFNEGERVRTELADKVTKLQVELDNVTGLLSQSDSKSSKLTKDFSALESQLQDTQELLQEENRQKLSLSTKLKQVEDEKNSFREQLEEEEEAKHNLEKQIATLHAQVADMKKKMEDSVGCLETAEEVKRKLQKDLEGLSQRHEEKVAAYDKLEKTKTRLQQELDDLLVDLDHQRQSACNLEKKQKKFDQLLAEEKTISAKYAEERDRAEAEAREKETKALSLARALEEAMEQKAELERLNKQFRTEMEDLMSSKDDVGKSVHELEKSKRALEQQVEEMKTQLEELEDELQATEDAKLRLEVNLQAMKAQFERDLQGRDEQSEEKKKQLVRQVREMEAELEDERKQRSMAVAARKKLEMDLKDLEAHIDSANKNRDEAIKQLRKLQAQMKDCMRELDDTRASREEILAQAKENEKKLKSMEAEMIQLQEELAAAERAKRQAQQERDELADEIANSSGKGALALEEKRRLEARIAQLEEELEEEQGNTELINDRLKKANLQIDQINTDLNLERSHAQKNENARQQLERQNKELKVKLQEMEGTVKSKYKASITALEAKIAQLEEQLDNETKERQAACKQVRRTEKKLKDVLLQVDDERRNAEQYKDQADKASTRLKQLKRQLEEAEEEAQRANASRRKLQRELEDATETADAMNREVSSLKNKLRRGDLPFVVPRRMARKGAGDGSDEEVDGKADGAEAKPAE

Legend:
[1] = Circular dichroism: secondary structure and thermal stability; assay type: physicochemical
Protocol: MIIA^1851-1960 was dialyzed into 20 mM Tris pH 7.5, 150 mM KCl, 0.5 mM CaCl2, 0.02% NaN3 and clarified by ultracentrifugation at 80,000 rpm for 10 minutes at 4°C in TLA 120.2 rotor. MIIA^1851-1960 (40 μM monomer concentration) was transferred to a 1 mm path-length quartz cuvette and scanned in Jasco J-815 Spectrometer equipped with a PFD-425 temperature controller. Spectra from 190 to 260 nm were obtained at 22°C using a scan speed of 100 nm/minute, a 1 nm bandwidth, and a sensitivity of 100 mdeg. Thermal melt curves were obtained by monitoring ellipticity at 222 nm while the sample temperature was increased from 2 – 85°C in 2°C intervals at a rate of 60°C/h, using a 1 nm bandwidth. The data were fit to a sigmoidal dose–response with a variable slope using Graphpad Prism v5.

[2] = Sedimentation equilibrium of MIIA^1851-1960 and S100A4/MIIA^1851-1960 mixtures; assay type: physicochemical, human; details: 22°C, MIIA^1851-1960 alone, 20 mM Tris pH 7.5, 150 mM KCl, 0.5 mM CaCl2, 1 mM TCEP, 0.02% NaN3, predicted 24,795
Protocol: (§1) Sedimentation equilibrium and velocity experiments were conducted at 22°C in a Beckman XL-I analytical ultracentrifuge using a Ti60 rotor and Raleigh interference optics. Wild-type S100A4 and MIIA^1851-1960 were dialyzed into 20 mM Tris pH 7.5, 150 mM KCl, 0.5 mM CaCl2, 1 mM TCEP and 0.02% NaN3 and clarified by ultracentrifugation at 80,000 rpm for 10 minutes at 4°C in TLA 120.2 rotor. Sedimentation equilibrium analysis of MIIA^1851-1960 and S100A4 was conducted in six channel centerpieces by sequentially equilibrating the protein at three concentrations for 24 hr at 12,000, 20,000 and 28,000 rpm and globally analyzing the data using HeteroAnalysis v1.1.44 (James L. Cole and Jeffrey W. Lary). The sedimentation velocity experiments were conducted at 53,000 rpm using double sector centerpieces and analyzed using DCDT + v2.4.0 [57, 58]. The best-fit parameters and their 95% joint confidence intervals are reported. The calculated masses of the wild-type S100A4 and MIIA^1851-1960 monomers are 11,597.3 and 12,397.5 Da, respectively. Values of ν-bar = 0.715 for S100A4/MIIA^851-1960 and 0.735 for S100A4, ρ = 1.0059, μ = 1.00586 cp were calculated using Sednterp v1.06 (Hayes, B., T. Laue & J. Philo, Sedimentation Interpretation Program. 2003, University of New Hampshire) from the amino acid and buffer compositions, respectively.

S100A4 [3] = target: T1, S100A4 (Homo sapiens, UniProt P26447); assay: as above; assay type: physicochemical; details: 22°C
T1 construct: heteronuclear single quantum coherence spectrum (HSQC) of full-length Ca^2+-S100A4 at 600 MHz; made in house; host or cells: E. coli, M9 medium with 15N NH4Cl (BL21(DE3)* is named for the unlabelled protein)
T1 sequence (P26447 2-101 limits assumed, one chain of several): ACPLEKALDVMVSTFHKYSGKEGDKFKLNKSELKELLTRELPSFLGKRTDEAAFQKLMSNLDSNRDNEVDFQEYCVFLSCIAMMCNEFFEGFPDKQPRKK
Protocol: as §1

S100A4 [4] = target: T1, S100A4; assay: Sedimentation velocity of MIIA^1851-1960, S100A4 and S100A4/MIIA^1851-1960 mixtures; assay type: physicochemical; details: sedimentation velocity, protein alone
Protocol: as §1

[5] = ref [45]; cited from earlier work
From the text: An interesting feature of the S100A4/myosin-IIA complex is that myosin-IIA residues contributing to the coiled-coil interface also mediate S100A4 binding.

Molecule | Reversibility of thermal unfolding ([1]; CD, 222 nm, data not shown) | Transition midpoint (Tm) for unfolding ([1]; CD, ellipticity at 222 nm, 40 μM monomer, 20 mM Tris pH 7.5, 150 mM KCl, 0.5 mM CaCl2, 0.02% NaN3, 2 – 85°C at 60°C/h, average of two independent experiments) [°C] | Secondary structure by CD ([1]; far-UV, 190 to 260 nm, 22°C, 40 μM MIIA^1851-1960 monomer, pH 7.5) | Experimental MW (weight-average molecular mass) [2] | Oligomeric state (S100A4 [3]) | Peak 1 S20,w (S100A4 [4]; 22°C, 53,000 rpm, 20 mM Tris pH 7.5, 150 mM KCl, 0.5 mM CaCl2, 1 mM TCEP, 0.02% NaN3) | Peak 1 MW (S100A4 [4]; 22°C) [kDa] | S value (S100A4 [4]; 22°C) [S] | [Peak 1] (green), relative amount of plateau concentrations (S100A4 [4]; 22°C) | Tm [5] [°C]
B1 | reversible | 27 | primarily α-helical | 25,651 ± 308 Da | we did not detect any monomer | 1.91 ± 0.01 | 18.5 ± 0.2 | 1.91 | 2.09 ± 0.02 | –
B2 | – | – | – | – | – | – | – | – | – | 45
